# From US20200264182A1, “METHOD FOR DETECTING PROSTATE CANCER” (J-OIL MILLS, INC., priority 2017, published 2020)
# B1: AAL: Aleuria aurantia lectin, has affinity for fucose α1→6 but is not specific; from J-OIL MILLS, Inc. (protein)
# chain: PTEFLYTSKIAAISWAATGGRQQRVYFQDLNGKIREAQRGGDNPWTGGSSQNVIGEAKLFSPLAAVTWKSAQGIQIRVYCVNKDNILSEFVYDGSKWITGQLGSVGVKVGSNSKLAALQWGGSESAPPNIRVYYQKSNGSGSSIHEYVWSGKWTAGASFGSTVPGTGIGATAIGPGRLRIYYQATDNKIREHCWDSNSWYVGGFSASASAGVSIAAISWGSTPNIRVYWQKGREELYEAAYGGSWNTPGQIKDASRPTPSLPDTFIAANSSGNIDISVFFQASGVSLQQWQWISGKGWSIGAVVPTGTPAGW
# Assays:
# [1] = Binding to sugar chains, summary of Tables 2 to 5; details: sugar chains No. 015, 201 to 203, and 401 to 418
# Procedure: (§1) Details of the FAC method are described in Patent Document 2 filed by some of the present applicants, for example.
# (§2) Binding constants (at 25° C.) of PhoSL, SRL, NSL and LSL belonging to the fucose α1→6 specific lectin for various sugar chains are shown in Tables 2 to 5.
# (§3) The AAL and AOL bind to the fucose α1→6 sugar chains (sugar chains No. 015, 201 to 203, and 401 to 418), as well as to the glycolipid-type sugar chain excluding the fucose α1→6 (sugar chains No. 718, 722, 723, 727, 909, 910 and 933). The LCL and PSL bind to the fucose α1→6 sugar chain, as well as to sugar chain excluding the α1→6 fucose (sugar chains No. 003, and 005 to 014).
# Furthermore, the binding constant of the fucose α1→6 specific lectin is not decreased even if a sialic acid is added to the fucose α1→6 sugar chain (sugar chains No. 601 and 602). In addition, the fucose α1→6 specific lectin also strongly binds to the triple-strand (sugar chains No. 407 to 413) and the four-strand (sugar chains No. 418) of the fucose uα1→6 sugar chain.
# [2] = Binding to sugar chains, summary of Tables 2 to 5; details: sugar chains No. 718, 722, 723, 727, 909, 910 and 933
# Procedure: as §1, §2, §3
# [3] = FAC binding constant (Table 5 entry); details: Table 5: sugar chain having no fucose; at 25° C.
# Procedure: as §1, §2
# serum fucosylated PSA = assay: Sandwich ELISA, anti-PSA antibody and biotin-labeled lectin; type: binding, human
# Procedure: The anti-PSA antibody from which sugar chains had been removed was diluted to 5 μg/mL with PBS. 25 μL of this diluted solution was added to each well of an ELISA plate and allowed to stand at 37° C. for 12 hours, and then the additive solution was discarded.
# 150 μL of PBS containing 0.05% Tween 20 (product name: polyoxyethylene sorbitan monolaurate, from Nacalai Tesque, Inc.) was added to each well, and then the additive solution was discarded. This manipulation was repeated three times in total.
# 25 μL of 1% BSA/PBS was added to each well and allowed to stand at 37° C. for 1 hour, and then the additive solution was discarded.
# 150 μL of PBS containing 0.05% Tween 20 was added to each well, and then the additive solution was discarded. This manipulation was repeated three times in total.
# To graph a calibration curve, 25 μL of the fucosylated PSA reference standard diluted with 1% BSA/PBS to a concentration of 0 to 200 ng/mL was added to each well and allowed to stand at room temperature for 1 hour, and then the additive solution was discarded. In addition, to detect the fucosylated PSA in the serum of the subject by the lectin, 25 μL of serum of “Healthy 1” and “Prostate cancer 4” 2-fold diluted with PBS was added to each well and allowed to stand at room temperature for 1 hour, and then the additive solution was discarded.
# In Reference Example 1, 25 μL of a biotin-labeled PhoSL diluted to 0.1 μg/mL with 0.1% BSA/PBS (pH 7.4) was added to each well and allowed to stand at 4° C. for 30 minutes, and then the additive solution was discarded. In Example 1, 25 μL of a biotin-labeled PhoSL diluted to 0.1 μg/mL with 0.1% BSA/10-fold diluted PBS+glycine-NaOH (pH 9.6) was added to each well and allowed to stand at 4° C. for 30 minutes, and then the additive solution was discarded.
# 25 μL of a horseradish peroxidase (HRP)-labeled streptavidin solution (from Vector Laboratories, Inc., concentration: 0.4 μg/mL, in 1% BSA/PBS) was added to each well and allowed to stand at room temperature for 30 minutes, and then the additive solution was discarded.
# 25 μL of chromogenic substrate for HRP (product name: TMB, from Kirkegaard & Perry Laboratories, Inc.) was added to each well and allowed to stand at room temperature for 10 minutes.
# 25 μL of 1M phosphoric acid was added to terminate the reaction.
# Absorbance (Ab) at 450 nm and 630 nm was measured using a plate reader, and a measurement (Ab450-630) was obtained.
# A calibration curve was graphed by plotting signals (reaction values, Ab450-630) of the fucosylated PSA reference standard with the biotin-labeled PhoSL. A Signal (Ab450-630) of the biotin-labeled PhoSL corresponding to the fucosylated PSA concentration of 10 ng/mL was defined as 10 U/mL.
# The signals of biotin-labeled PhoSL (Ab450-630) for the serum fucosylated PSA in the subject samples A were assigned to the calibration curve to calculate reaction values (unit: U/mL).
# The PhoSL reaction values for the subject samples A were measured by the same operation as in Example 1. From the PhoSL reaction values, an average value and a median value were determined. Furthermore, a standard cutoff value (89.7 U/mL) was used to determine a detection rate (positive rate) of the prostate cancer patients, and a false detection rate (false positive rate) of the healthy persons.
# Comparative Example 2 in Table 9 indicates results of detecting the serum fucosylated PSA using AAL (AAL reaction values) in the subject samples A. Specifically, in Reference Example 1, AAL reaction values were measured in the same manner as in Reference Example 1 except that the biotin-labeled PhoSL was replaced with a biotin-labeled AAL. A standard cut-off value for the AAL reaction values was 894.8 U/mL. As in Example 2, an average value, a median value, a positive rate and a false positive rate were determined from the AAL reaction values.
# [4] = subject samples A, 7 healthy persons, pH 7.4
# [5] = subject samples A, 9 patients, pH 7.4
molecule,measurement,setting,value
B1,binding to the fucose α1→6 sugar chains (in words),[1],bind
same,binding to the glycolipid-type sugar chain excluding the fucose α1→6 (in words),[2],bind
same,Binding constant for sugar chain No. 728,[3],<1000 M⁻¹
same,lectin reaction value B of Healthy 1,"serum fucosylated PSA; serum of Healthy 1, pH in lectin reaction 7.4",1099.6 U/mL
same,lectin reaction value of Healthy 2,"serum fucosylated PSA; serum of Healthy 2, pH in lectin reaction 7.4",854.6 U/mL
same,lectin reaction value of Healthy 3,"serum fucosylated PSA; serum of Healthy 3, pH in lectin reaction 7.4",1062.7 U/mL
same,lectin reaction value of Healthy 4,"serum fucosylated PSA; serum of Healthy 4, pH in lectin reaction 7.4",115.0 U/mL
same,lectin reaction value of Healthy 5,"serum fucosylated PSA; serum of Healthy 5, pH in lectin reaction 7.4",32.3 U/mL
same,lectin reaction value of Healthy 6,"serum fucosylated PSA; serum of Healthy 6, pH in lectin reaction 7.4",1193.1 U/mL
same,lectin reaction value of Healthy 7,"serum fucosylated PSA; serum of Healthy 7, pH in lectin reaction 7.4",1028.8 U/mL
same,lectin reaction value of Prostate cancer 1,"serum fucosylated PSA; serum of Prostate cancer 1, GS 4 (2 + 2), pH in lectin reaction 7.4",831.2 U/mL
same,lectin reaction value of Prostate cancer 2,"serum fucosylated PSA; serum of Prostate cancer 2, GS 5 (2 + 3), pH in lectin reaction 7.4",1032.3 U/mL
same,lectin reaction value of Prostate cancer 3,"serum fucosylated PSA; serum of Prostate cancer 3, GS 6 (3 + 3), pH in lectin reaction 7.4",1152.7 U/mL
same,lectin reaction value A of Prostate cancer 4,"serum fucosylated PSA; serum of Prostate cancer 4, GS 6 (3 + 3), pH in lectin reaction 7.4",926.5 U/mL
same,lectin reaction value of Prostate cancer 5,"serum fucosylated PSA; serum of Prostate cancer 5, GS 7 (3 + 4), pH in lectin reaction 7.4",1025.0 U/mL
same,lectin reaction value of Prostate cancer 6,"serum fucosylated PSA; serum of Prostate cancer 6, GS 7 (3 + 4), pH in lectin reaction 7.4",961.5 U/mL
same,lectin reaction value of Prostate cancer 7,"serum fucosylated PSA; serum of Prostate cancer 7, GS 8 (3 + 5), pH in lectin reaction 7.4",1211.9 U/mL
same,lectin reaction value of Prostate cancer 8,"serum fucosylated PSA; serum of Prostate cancer 8, GS 8 (4 + 4), pH in lectin reaction 7.4",1010.0 U/mL
same,lectin reaction value of Prostate cancer 9,"serum fucosylated PSA; serum of Prostate cancer 9, GS 8 (4 + 4), pH in lectin reaction 7.4",988.1 U/mL
same,"reaction value, Healthy person group, Average value",serum fucosylated PSA; [4],769.4 U/mL
same,"reaction value, Healthy person group, Median value",serum fucosylated PSA; [4],1028.8 U/mL
same,"reaction value, Prostate cancer patient group, Average value",serum fucosylated PSA; [5],1015.5 U/mL
same,"reaction value, Prostate cancer patient group, Median value",serum fucosylated PSA; [5],1010.0 U/mL
same,"reaction value, GS6, Mean value","serum fucosylated PSA; subject samples A, n 2, pH 7.4",1039.6 U/mL
same,"reaction value, GS6, Median value","serum fucosylated PSA; subject samples A, n 2, pH 7.4",1039.6 U/mL
same,"reaction value, GS7, Mean value","serum fucosylated PSA; subject samples A, n 2, pH 7.4",993.3 U/mL
same,"reaction value, GS7, Median value","serum fucosylated PSA; subject samples A, n 2, pH 7.4",993.3 U/mL
same,"reaction value, Negative (GS5 or less), Mean value","serum fucosylated PSA; subject samples A, n 2, pH 7.4",931.8 U/mL
same,"reaction value, Negative (GS5 or less), Median value","serum fucosylated PSA; subject samples A, n 2, pH 7.4",931.8 U/mL
same,"reaction value, GS8 or more, Mean value","serum fucosylated PSA; subject samples A, n 3, pH 7.4",1070.0 U/mL
same,"reaction value, GS8 or more, Median value","serum fucosylated PSA; subject samples A, n 3, pH 7.4",1010.0 U/mL
